According to article PMC7810697, “Sarcolipin alters SERCA1a interdomain communication by impairing binding of both calcium and ATP” (Scientific Reports, 2021):
Ends that are not written are not given here. * marks the point of attachment. Palmitoyl = CCCCCCCCCCCCCCCC(=O)*

Columns and labels:
[1] = target: T1, DDM-solubilized SR (native SERCA1a) (Oryctolagus cuniculus, UniProt P04191); test: Effect of SLN:SERCA1a stoichiometry on phosphorylated intermediate, DDM-solubilized SR; type: biochemical, rabbit; conditions: for EPmax (stoichiometry series), DDM-solubilized SR / decrease of the EP level, DDM-solubilized native SERCA1a (discussion): Fig. 4G; for amplitude of the inhibition of phosphoenzyme level, DDM-solubilized SR: SR without added SLN = 100%; for amplitude of the inhibition of phosphoenzyme level, DDM-solubilized SR / SLN:SERCA1a ratio for half-inhibition, DDM-solubilized SR (Fig. 4H): mean of three independent experiments; for SLN:SERCA1a ratio for half-inhibition, DDM-solubilized SR (Fig. 4H): phosphoenzyme after 20 s, p = 0.047 pSLN vs SLN
T1 construct: DDM-solubilized native SERCA1a purification; from tissue; host or cells: rabbit skeletal muscle sarcoplasmic reticulum
T1 sequence (P04191 1-994 isoform P04191-2): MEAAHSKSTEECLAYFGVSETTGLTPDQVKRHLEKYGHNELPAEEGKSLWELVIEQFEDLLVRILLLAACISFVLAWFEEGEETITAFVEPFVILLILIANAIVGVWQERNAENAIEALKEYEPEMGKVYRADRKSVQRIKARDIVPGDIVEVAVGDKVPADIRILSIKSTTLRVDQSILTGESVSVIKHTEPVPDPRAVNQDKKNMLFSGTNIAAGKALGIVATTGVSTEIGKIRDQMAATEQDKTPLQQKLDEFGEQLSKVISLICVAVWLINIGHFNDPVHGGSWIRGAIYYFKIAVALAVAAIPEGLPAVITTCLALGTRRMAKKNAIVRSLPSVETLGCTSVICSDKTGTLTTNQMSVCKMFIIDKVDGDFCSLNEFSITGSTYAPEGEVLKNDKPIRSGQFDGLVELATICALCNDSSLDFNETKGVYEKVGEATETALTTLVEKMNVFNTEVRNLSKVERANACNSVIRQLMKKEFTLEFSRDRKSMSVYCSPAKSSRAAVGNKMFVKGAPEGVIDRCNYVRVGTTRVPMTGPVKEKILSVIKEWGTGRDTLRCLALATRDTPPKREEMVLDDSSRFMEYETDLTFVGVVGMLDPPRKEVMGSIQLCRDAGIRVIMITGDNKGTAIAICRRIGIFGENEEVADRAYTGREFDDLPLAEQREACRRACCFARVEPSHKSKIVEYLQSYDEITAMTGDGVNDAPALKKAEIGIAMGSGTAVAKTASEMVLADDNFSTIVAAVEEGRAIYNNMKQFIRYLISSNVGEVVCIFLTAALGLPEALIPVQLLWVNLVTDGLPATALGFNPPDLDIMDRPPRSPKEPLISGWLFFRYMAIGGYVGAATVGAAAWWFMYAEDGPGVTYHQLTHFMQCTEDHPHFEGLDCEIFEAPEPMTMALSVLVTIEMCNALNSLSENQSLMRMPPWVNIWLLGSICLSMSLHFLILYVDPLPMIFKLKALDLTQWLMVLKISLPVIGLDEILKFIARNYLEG
Method: Transient formation of the phosphoenzyme intermediate was measured after incubation with [γ^32P]ATP followed by acid quenching, and filtration. For most experiments, 50 µL of enzyme at 10 µg/mL in a buffer containing 50 mM Tes-Tris pH7.5, 1 mM KCl, 5 mM MgCl2, 20% glycerol (w/w) and 0.5 mg/mL DDM, supplemented or not with SLN, was stored on ice. Concentrations of EGTA and calcium are specified in figure legends in order to reach the appropriate [Ca^2+]free and therefore the desired starting state for the ATPase. For kinetics of phosphorylation, we initiate reaction by addition of 2 µM [γ^32P]ATP (5 mCi/µmole), and calcium at 100 µM when specified. Reaction was quenched by addition of 2 mL of cold quenching medium (500 mM TCA + 30 mM H3P0_4) under vigorous mixing, and immediately stored on ice for 20–30 min to improve precipitation, a period of time critical for retention of the precipitate on the filter in presence of detergent. This was followed by filtration on GS filters (Millipore, Saint Quentin-Fallavier, France) and careful rinsing of the filters with diluted quenching medium (50 mM TCA + 3 mM H3P0_4). The amount of radioactivity bound to the filter was estimated by liquid scintillation counting (Perkin Elmer TriCarb Counter). When starting from a calcium-deprived state (Fig. 4C,D), EGTA was added only one minute before starting phosphorylation to limit irreversible inactivation of the solubilized ATPase, although the presence of glycerol helps in protecting the enzyme from irreversible inactivation. For dephosphorylation kinetics, 1 mM “cold” Mg.ATP was added after a 30 s period of phosphorylation. For Ca^2+-dependency, we adjust the concentration of free calcium according to the Ca.EGTA constant as mentioned above, before triggering phosphorylation. […] Phosphorylations were done at 0 °C especially for inhibition by vanadate to prevent dissociation of vanadate and limit irreversible inactivation in absence of calcium. […]
resuspended in a large volume of pure water and lyophilized to evaporate most of the TFA. The rinsed powder was then suspended in presence of 10 mM HCl to exchange the anionic residual TFA that may interact with the positive charges of the peptide for chloride. This suspension was lyophilized again.
Three additional cycles of – dissolving in pure water / lyophilisation – will allow to eliminate traces of TFA and to get back to a pH compatible with functional tests. For final solubilisation of SLN in detergent, powder was then dissolved in 50% TFE and an amount of detergent to reach a 100:1 mole:mole detergent:SLN ratio. Here, we used C12E8 as it is fully compatible with functional characterization of SERCA1a 23. This suspension was then lyophilized again to evaporate TFE.
Sarcolipins (Palm-SLN or SLN) were finally resuspended at 0.8 mg/mL (about 200 µM) in a 10 mM potassium phosphate buffer pH 7.4, in the presence of 2.5 mg/mL C12E8. […]
DDM-solubilized native SERCA1a purification
SR vesicles were suspended at a concentration of 1 mg/mL in a buffer containing 50 mM MOPS-Tris pH7, 100 mM KCl, 5 mM MgCl2, 0.1 mM CaCl2, 20 % glycerol (v/v) and 10 mg/mL DDM (detergent:protein ratio 10:1 w/w), and incubated for 10 minutes at 20°C. Solubilized material was recovered after centrifugation for 10 minutes at 120,000 x g on a TLA100.3 rotor (Beckman Coulter TL100 ultracentrifuge). Supernatant was injected on a size exclusion chromatography column (Superdex 200 10/300 GL on an Akta Purifier FPLC system, GE Healthcare) equilibrated with the same buffer but now containing only 0.5 mg/mL DDM. Chromatography was performed at 4°C and at a flow rate of 0.5 mL/min. Fractions corresponding to the main peak were collected, pooled and stored at - 80°C. For further details, see 32.
Steady-state ATPase activity measurements
Measurements were performed using classical enzyme coupled assay. We measured the rate of NADH oxidation in the presence of 0.1 mg/mL lactate deshydrogenase, 0.05 mg/mL pyruvate kinase, 1 mM […]

[2] = target: T2, recombinant SERCA1a (recS1a) (Oryctolagus cuniculus, UniProt P04191); test: Effect of SLN:SERCA1a stoichiometry on phosphorylated intermediate, recS1a; type: biochemical, rabbit (expressed in S. cerevisiae); conditions: for EPmax (stoichiometry series), recS1a / maximum decrease of the EP level, recS1a (discussion): Fig. 4G; for SLN:SERCA1a ratio for half-inhibition, recS1a (Fig. 4H): phosphoenzyme after 20 s, dose-response with variable slope; for SLN:SERCA1a ratio for half-inhibition, recS1a (Fig. 4H) / amplitude of the inhibition of phosphoenzyme level, recS1a: mean of three independent experiments; for amplitude of the inhibition of phosphoenzyme level, recS1a: recS1a without SLN = 100%
T2 construct: BAD (biotin acceptor domain) (C, cleaved yes); made in house; host or cells: Saccharomyces cerevisiae
T2 sequence (P04191 1-994 isoform P04191-2): as above
Method: (§1) Transient formation of the phosphoenzyme intermediate was measured after incubation with [γ^32P]ATP followed by acid quenching, and filtration. For most experiments, 50 µL of enzyme at 10 µg/mL in a buffer containing 50 mM Tes-Tris pH7.5, 1 mM KCl, 5 mM MgCl2, 20% glycerol (w/w) and 0.5 mg/mL DDM, supplemented or not with SLN, was stored on ice. Concentrations of EGTA and calcium are specified in figure legends in order to reach the appropriate [Ca^2+]free and therefore the desired starting state for the ATPase. For kinetics of phosphorylation, we initiate reaction by addition of 2 µM [γ^32P]ATP (5 mCi/µmole), and calcium at 100 µM when specified. Reaction was quenched by addition of 2 mL of cold quenching medium (500 mM TCA + 30 mM H3P0_4) under vigorous mixing, and immediately stored on ice for 20–30 min to improve precipitation, a period of time critical for retention of the precipitate on the filter in presence of detergent. This was followed by filtration on GS filters (Millipore, Saint Quentin-Fallavier, France) and careful rinsing of the filters with diluted quenching medium (50 mM TCA + 3 mM H3P0_4). The amount of radioactivity bound to the filter was estimated by liquid scintillation counting (Perkin Elmer TriCarb Counter). When starting from a calcium-deprived state (Fig. 4C,D), EGTA was added only one minute before starting phosphorylation to limit irreversible inactivation of the solubilized ATPase, although the presence of glycerol helps in protecting the enzyme from irreversible inactivation. For dephosphorylation kinetics, 1 mM “cold” Mg.ATP was added after a 30 s period of phosphorylation. For Ca^2+-dependency, we adjust the concentration of free calcium according to the Ca.EGTA constant as mentioned above, before triggering phosphorylation. […] Phosphorylations were done at 0 °C especially for inhibition by vanadate to prevent dissociation of vanadate and limit irreversible inactivation in absence of calcium.

[3] = target: T2, recombinant SERCA1a (recS1a); test: Kinetics of phosphorylation from [γ32P]ATP, recS1a; type: biochemical, rabbit (expressed in S. cerevisiae); conditions: for EPmax, from calcium deprived state: Fig. 4C, mean of six (pSLN), four (SLN) replicates, recS1a alone 3.09 ± 0.10; for t1/2 of phosphorylation, from calcium deprived state: EGTA 1 min then 2 µM [γ32P]ATP and calcium, six (pSLN) or four (SLN) replicates from two independent experiments, recS1a alone 6.8, p < 0.0001; for rate of phosphorylation, from calcium deprived state: recS1a, starting from calcium-deprived state, Fig. 4C,D
Method: as §1

EPmax (stoichiometry series), DDM-solubilized SR [1] [nmoles EP/mg ATPase]	decrease of the EP level, DDM-solubilized native SERCA1a (discussion) [1]	amplitude of the inhibition of phosphoenzyme level, DDM-solubilized SR [1] [%]	EPmax (stoichiometry series), recS1a [2] [nmoles EP/mg ATPase]	maximum decrease of the EP level, recS1a (discussion) [2]	amplitude of the inhibition of phosphoenzyme level, recS1a [2] [%]	EPmax, from calcium bound state ([3]; SLN:SERCA1a 10:1, Fig. 4A, average of four replicates from two independent experiments, recS1a alone 3.37 ± 0.35) [nmoles EP/mg ATPase]	EPmax, from calcium deprived state ([3]; SLN:SERCA1a 10:1) [nmoles EP/mg ATPase]	t1/2 of phosphorylation, from calcium bound state (Ca2.E1) ([3]; SLN:SERCA1a 10:1 mol:mol, 2 µM [γ32P]ATP, four replicates from two independent experiments, recS1a alone 5.7, p = 0.45) [s]	t1/2 of phosphorylation, from calcium deprived state ([3]; SLN:SERCA1a 10:1 mol:mol) [s]	rate of phosphorylation, from calcium bound state ([3]; recS1a in absence or presence of pSLN, starting from Ca2.E1)	rate of phosphorylation, from calcium deprived state [3]	Substance	SLN:SERCA1a ratio for half-inhibition, DDM-solubilized SR (Fig. 4H) [1]	SLN:SERCA1a ratio for half-inhibition, recS1a (Fig. 4H) [2]
4.00 ± 0.14	about 30%	28.1 ± 1.2	2.37 ± 0.05	about 30%	31.2 ± 0.8	3.23 ± 0.37	3.10 ± 0.09	5.1	13.5	the same	significantly lower	pSLN: chemically synthesized S-palmitoylated rabbit sarcolipin, 31-residue single-spanning membrane peptide, palmitoylated on Cys9 (MERSTRELC(Palmitoyl)LNFTVVLITVILIWLLVRSYQY; UniProt P42532 1-31, looked up)	5.9 ± 0.6 mol SLN added per mole of SERCA1a	5.1 ± 0.3 mol SLN added per mole of SERCA1a
3.94 ± 0.12	about 20%	19.0 ± 0.7	2.38 ± 0.05	about 30%	28.6 ± 0.5	–	3.15 ± 0.05	–	13.7	–	significantly lower	SLN: chemically synthesized non-palmitoylated rabbit sarcolipin; in cited literature results sarcolipin in general (MERSTRELCLNFTVVLITVILIWLLVRSYQY; UniProt P42532 1-31, looked up)	3.1 ± 0.3 mol SLN added per mole of SERCA1a	4.7 ± 0.2 mol SLN added per mole of SERCA1a
